Reference: the Human Domainome abundance scans (Beltran et al. 2025)
± gives the uncertainty stated by the source.

B1: Homeobox protein cut-like 1, residues 941 to 1008; numbered along this chain, P39880 (parent)
chain: QEVDTIELTRQVKEKLAKNGICQRIFGEKVLGLSQGSVSDMLSRPKPWSKLTQKGREPFIRMQLWLNG
B2: Connector enhancer of kinase suppressor of ras 2, residues 9 to 71; numbered along this chain, Q8WXI2 (parent)
chain: SKWSPSQVVDWMKGLDDCLQQYIKNFEREKISGDQLLRITHQELEDLGVSRIGHQELILEAVD

Variants of: B1
Assay: abundance fitness (aPCA) (normalised: wild type 0, dead -1); higher = more abundant; growth selection in yeast, the domain comes from the species named
Details: Homo sapiens

Row | Variant | abundance fitness
1 | QEKDTIELTRQVKEKLAKNGICQRIFGEKVLGLSQGSVSDMLSRPKPWSKLTQKGREPFIRMQLWLNG [V3K] | -0.136 ± 0.098
2 | QELDTIELTRQVKEKLAKNGICQRIFGEKVLGLSQGSVSDMLSRPKPWSKLTQKGREPFIRMQLWLNG [V3L] | 0.008 ± 0.052
3 | QECDTIELTRQVKEKLAKNGICQRIFGEKVLGLSQGSVSDMLSRPKPWSKLTQKGREPFIRMQLWLNG [V3C] | -0.486 ± 0.17
4 | QEPDTIELTRQVKEKLAKNGICQRIFGEKVLGLSQGSVSDMLSRPKPWSKLTQKGREPFIRMQLWLNG [V3P] | -0.111 ± 0.07
5 | QEGDTIELTRQVKEKLAKNGICQRIFGEKVLGLSQGSVSDMLSRPKPWSKLTQKGREPFIRMQLWLNG [V3G] | -0.154 ± 0.058
6 | QEQDTIELTRQVKEKLAKNGICQRIFGEKVLGLSQGSVSDMLSRPKPWSKLTQKGREPFIRMQLWLNG [V3Q] | -0.032 ± 0.076
7 | QEHDTIELTRQVKEKLAKNGICQRIFGEKVLGLSQGSVSDMLSRPKPWSKLTQKGREPFIRMQLWLNG [V3H] | -0.199 ± 0.12
8 | QEIDTIELTRQVKEKLAKNGICQRIFGEKVLGLSQGSVSDMLSRPKPWSKLTQKGREPFIRMQLWLNG [V3I] | 0.19 ± 0.091
9 | QEDDTIELTRQVKEKLAKNGICQRIFGEKVLGLSQGSVSDMLSRPKPWSKLTQKGREPFIRMQLWLNG [V3D] | -0.174 ± 0.094
10 | QENDTIELTRQVKEKLAKNGICQRIFGEKVLGLSQGSVSDMLSRPKPWSKLTQKGREPFIRMQLWLNG [V3N] | -0.335 ± 0.1
11 | QEADTIELTRQVKEKLAKNGICQRIFGEKVLGLSQGSVSDMLSRPKPWSKLTQKGREPFIRMQLWLNG [V3A] | -0.133 ± 0.061
12 | QEMDTIELTRQVKEKLAKNGICQRIFGEKVLGLSQGSVSDMLSRPKPWSKLTQKGREPFIRMQLWLNG [V3M] | -0.045 ± 0.074
13 | QEFDTIELTRQVKEKLAKNGICQRIFGEKVLGLSQGSVSDMLSRPKPWSKLTQKGREPFIRMQLWLNG [V3F] | -0.063 ± 0.073
14 | QEEDTIELTRQVKEKLAKNGICQRIFGEKVLGLSQGSVSDMLSRPKPWSKLTQKGREPFIRMQLWLNG [V3E] | -0.037 ± 0.093
15 | LEVDTIELTRQVKEKLAKNGICQRIFGEKVLGLSQGSVSDMLSRPKPWSKLTQKGREPFIRMQLWLNG [Q1L] | -0.218 ± 0.055
16 | SEVDTIELTRQVKEKLAKNGICQRIFGEKVLGLSQGSVSDMLSRPKPWSKLTQKGREPFIRMQLWLNG [Q1S] | 0.045 ± 0.076
17 | VEVDTIELTRQVKEKLAKNGICQRIFGEKVLGLSQGSVSDMLSRPKPWSKLTQKGREPFIRMQLWLNG [Q1V] | -0.201 ± 0.088
18 | NEVDTIELTRQVKEKLAKNGICQRIFGEKVLGLSQGSVSDMLSRPKPWSKLTQKGREPFIRMQLWLNG [Q1N] | -0.412 ± 0.11
19 | TEVDTIELTRQVKEKLAKNGICQRIFGEKVLGLSQGSVSDMLSRPKPWSKLTQKGREPFIRMQLWLNG [Q1T] | -0.038 ± 0.076
20 | AEVDTIELTRQVKEKLAKNGICQRIFGEKVLGLSQGSVSDMLSRPKPWSKLTQKGREPFIRMQLWLNG [Q1A] | 0.167 ± 0.1
21 | FEVDTIELTRQVKEKLAKNGICQRIFGEKVLGLSQGSVSDMLSRPKPWSKLTQKGREPFIRMQLWLNG [Q1F] | -0.088 ± 0.2
22 | REVDTIELTRQVKEKLAKNGICQRIFGEKVLGLSQGSVSDMLSRPKPWSKLTQKGREPFIRMQLWLNG [Q1R] | -0.046 ± 0.052
23 | HEVDTIELTRQVKEKLAKNGICQRIFGEKVLGLSQGSVSDMLSRPKPWSKLTQKGREPFIRMQLWLNG [Q1H] | -0.673 ± 0.14
24 | GEVDTIELTRQVKEKLAKNGICQRIFGEKVLGLSQGSVSDMLSRPKPWSKLTQKGREPFIRMQLWLNG [Q1G] | 0.06 ± 0.086

Row | Variant | abundance fitness
25 | EEVDTIELTRQVKEKLAKNGICQRIFGEKVLGLSQGSVSDMLSRPKPWSKLTQKGREPFIRMQLWLNG [Q1E] | 0.214 ± 0.091
26 | YEVDTIELTRQVKEKLAKNGICQRIFGEKVLGLSQGSVSDMLSRPKPWSKLTQKGREPFIRMQLWLNG [Q1Y] | -0.34 ± 0.13
27 | PEVDTIELTRQVKEKLAKNGICQRIFGEKVLGLSQGSVSDMLSRPKPWSKLTQKGREPFIRMQLWLNG [Q1P] | -0.277 ± 0.086
28 | CEVDTIELTRQVKEKLAKNGICQRIFGEKVLGLSQGSVSDMLSRPKPWSKLTQKGREPFIRMQLWLNG [Q1C] | -0.062 ± 0.13
29 | KEVDTIELTRQVKEKLAKNGICQRIFGEKVLGLSQGSVSDMLSRPKPWSKLTQKGREPFIRMQLWLNG [Q1K] | 0.076 ± 0.065
30 | MEVDTIELTRQVKEKLAKNGICQRIFGEKVLGLSQGSVSDMLSRPKPWSKLTQKGREPFIRMQLWLNG [Q1M] | 0.09 ± 0.081
31 | QMVDTIELTRQVKEKLAKNGICQRIFGEKVLGLSQGSVSDMLSRPKPWSKLTQKGREPFIRMQLWLNG [E2M] | -0.09 ± 0.029
32 | QYVDTIELTRQVKEKLAKNGICQRIFGEKVLGLSQGSVSDMLSRPKPWSKLTQKGREPFIRMQLWLNG [E2Y] | -0.329 ± 0.03
33 | QSVDTIELTRQVKEKLAKNGICQRIFGEKVLGLSQGSVSDMLSRPKPWSKLTQKGREPFIRMQLWLNG [E2S] | -0.135 ± 0.027
34 | QRVDTIELTRQVKEKLAKNGICQRIFGEKVLGLSQGSVSDMLSRPKPWSKLTQKGREPFIRMQLWLNG [E2R] | -0.157 ± 0.027
35 | QPVDTIELTRQVKEKLAKNGICQRIFGEKVLGLSQGSVSDMLSRPKPWSKLTQKGREPFIRMQLWLNG [E2P] | -0.206 ± 0.028
36 | QAVDTIELTRQVKEKLAKNGICQRIFGEKVLGLSQGSVSDMLSRPKPWSKLTQKGREPFIRMQLWLNG [E2A] | -0.273 ± 0.027
37 | QLVDTIELTRQVKEKLAKNGICQRIFGEKVLGLSQGSVSDMLSRPKPWSKLTQKGREPFIRMQLWLNG [E2L] | -0.376 ± 0.026
38 | QNVDTIELTRQVKEKLAKNGICQRIFGEKVLGLSQGSVSDMLSRPKPWSKLTQKGREPFIRMQLWLNG [E2N] | -0.227 ± 0.031
39 | QHVDTIELTRQVKEKLAKNGICQRIFGEKVLGLSQGSVSDMLSRPKPWSKLTQKGREPFIRMQLWLNG [E2H] | -0.317 ± 0.032
40 | QWVDTIELTRQVKEKLAKNGICQRIFGEKVLGLSQGSVSDMLSRPKPWSKLTQKGREPFIRMQLWLNG [E2W] | -0.738 ± 0.033
41 | QKVDTIELTRQVKEKLAKNGICQRIFGEKVLGLSQGSVSDMLSRPKPWSKLTQKGREPFIRMQLWLNG [E2K] | -0.074 ± 0.029
42 | QGVDTIELTRQVKEKLAKNGICQRIFGEKVLGLSQGSVSDMLSRPKPWSKLTQKGREPFIRMQLWLNG [E2G] | -0.081 ± 0.027
43 | QVVDTIELTRQVKEKLAKNGICQRIFGEKVLGLSQGSVSDMLSRPKPWSKLTQKGREPFIRMQLWLNG [E2V] | -0.16 ± 0.026
44 | QCVDTIELTRQVKEKLAKNGICQRIFGEKVLGLSQGSVSDMLSRPKPWSKLTQKGREPFIRMQLWLNG [E2C] | -0.375 ± 0.033
45 | QQVDTIELTRQVKEKLAKNGICQRIFGEKVLGLSQGSVSDMLSRPKPWSKLTQKGREPFIRMQLWLNG [E2Q] | -0.093 ± 0.029
46 | QIVDTIELTRQVKEKLAKNGICQRIFGEKVLGLSQGSVSDMLSRPKPWSKLTQKGREPFIRMQLWLNG [E2I] | -0.085 ± 0.031
47 | QDVDTIELTRQVKEKLAKNGICQRIFGEKVLGLSQGSVSDMLSRPKPWSKLTQKGREPFIRMQLWLNG [E2D] | -0.283 ± 0.031

Variants of: B2
Assay: as above
Details: Homo sapiens

Row | Variant | abundance fitness
48 | F26Y | -0.908 ± 0.09
49 | F26W | -0.785 ± 0.052
50 | I39Y | -0.632 ± 0.064
51 | N25W | -0.443 ± 0.03
52 | N25E | -0.168 ± 0.037
53 | N25H | -0.055 ± 0.046
54 | N25S | -0.05 ± 0.028
55 | E56D | -0.011 ± 0.045
56 | E56N | -0.046 ± 0.057
57 | E60Y | -0.514 ± 0.047
58 | E60H | -0.111 ± 0.038
59 | Q42N | -0.228 ± 0.044
60 | L36M | -0.334 ± 0.045
61 | S4K | -0.141 ± 0.043
62 | D63A | -0.001 ± 0.045
63 | D63F | -0.233 ± 0.057
64 | R28T | -0.058 ± 0.032
65 | R28V | -0.159 ± 0.031
66 | R28A | -0.052 ± 0.026
67 | L57Q | -0.213 ± 0.043
68 | L57D | -0.677 ± 0.064
69 | L57F | -0.553 ± 0.036

Row | Variant | abundance fitness
70 | L19R | -0.763 ± 0.036
71 | L19A | -0.652 ± 0.033
72 | K2M | -0.121 ± 0.11
73 | K2R | -0.325 ± 0.052
74 | Q20C | -0.325 ± 0.042
75 | Q21E | -0.076 ± 0.037
76 | Q21M | -0.102 ± 0.032
77 | Q21Y | -0.459 ± 0.066
78 | D34E | 0.055 ± 0.037
79 | D34Y | -0.12 ± 0.037
80 | K13E | -0.352 ± 0.046
81 | K13Y | -0.242 ± 0.056
82 | K13M | -0.103 ± 0.029
83 | Q7K | -0.227 ± 0.032
84 | Q7D | -0.07 ± 0.048
85 | V49C | -0.374 ± 0.033
86 | V49T | -0.857 ± 0.062
87 | V49D | -0.777 ± 0.051
88 | W11P | -0.854 ± 0.066
89 | W11E | -0.59 ± 0.06
90 | W11A | -0.95 ± 0.051
91 | W11V | -0.749 ± 0.038
